Experimental findings from article doi:10.1101/660928 are described below.

This data set concerns Rv1626 D65E (phosphomimic, Rv1626~P) (Mycobacterium tuberculosis). Put plainly: EMSA. For orientation: In EMSA bound probe runs differently from free probe, usually more slowly.

For the substance “5' UTR of Mtb Rv1936 (category 1 ANTAR RNA)”, the Kd (as a rule, the free concentration of one partner at which half of the binding sites on the other are occupied at equilibrium, for simple one-to-one binding) came out at 15 µM.
